Test results published in the supplement of paper PMC10201428.
± gives the standard deviation of the averaged measurements.

Columns and labels:
[1] = test system: VchCAST RNA-guided transposition machinery (E. coli BL21(DE3) host, lacZ target); assay: relative integration efficiency (T-LR orientation) vs wild-type transposon end (log2 (normalized fold change)); transposon end mutated: right end (5 bp flank + 75 bp right end); higher = more efficient transposition
Method: (§1)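 Pooled, barcoded VchCAST (Tn6677) mini-transposon donor libraries; each variable transposon-end sequence sits in a fixed pDonor mini-transposon context (10-bp barcode and cargo not included). Left- or right-end libraries were co-transformed with pEffector (TniQ-Cascade, TnsABC, lacZ crRNA, T7, 0.1 mM IPTG) into E. coli BL21(DE3) and grown 18 h at 37 C. T-LR and T-RL junction amplicons were sequenced; output/input barcode fold change was normalised to the mean of four wild-type barcodes and log2-transformed. Two biological replicates; zero-count/undetected variants carry floor values (-10 / -15), censored here. Barcode uncoupling by PCR recombination adds noise.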

[2] = test system: VchCAST RNA-guided transposition machinery (E. coli BL21(DE3) host, lacZ target); assay: relative integration efficiency (T-RL orientation) vs wild-type transposon end (log2 (normalized fold change)); transposon end mutated: right end (5 bp flank + 75 bp right end); higher = more efficient transposition
Method: as §1

Sequence	relative integration efficiency (log2) [1]	relative integration efficiency (log2) [2]
AACGGTGTTGATACAACCATAAAATGATAATTACACCCATAAATTGATAATTATCACACCCATAAATTGATATTGCCTCTGATCATAGTCAGACCAACATTGCTACGACCCGTATTCGCACCGACAC	0.221 ± 0.4	-0.153 ± 0.0083
AACTTTGTTGATACAACCATAAAATGATAATTACACCCATAAATTGATAATTATCACACCCATAAATTGATATTGCCTCTGATCATAGTCAGACCAACATTGCTACGACCCGTATTCGCACCGACAC	0.0855 ± 0.25	-0.217 ± 0.078
ACAAATGTTGATACAACCATAAAATGATAATTACACCCATAAATTGATAATTATCACACCCATAAATTGATATTGCCTCTGATCATAGTCAGACCAACATTGCTACGACCCGTATTCGCACCGACAC	0.224 ± 0.075	0.215 ± 0.12
ACAGGTGTTGATACAACCATAAAATGATAATTACACCCATAAATTGATAATTATCACACCCATAAATTGATATTGCCTCTGATCATAGTCAGACCAACATTGCTACGACCCGTATTCGCACCGACAC	-0.1 ± 0.25	-0.284 ± 0.012
ACATAAGTTGATACAACCATAAAATGATAATTACACCCATAAATTGATAATTATCACACCCATAAATTGATATTGCCTCTGATCATAGTCAGACCAACATTGCTACGACCCGTATTCGCACCGACAC	-4.25 ± 0.29	-6.621 ± 0.045
ACATGGGTTGATACAACCATAAAATGATAATTACACCCATAAATTGATAATTATCACACCCATAAATTGATATTGCCTCTGATCATAGTCAGACCAACATTGCTACGACCCGTATTCGCACCGACAC	-5.51 ± 0.64	-6.44 ± 0.3
ACATTACAAGATACAACCATAAAATGATAATTACACCCATAAATTGATAATTATCACACCCATAAATTGATATTGCCTCTGATCATAGTCAGACCAACATTGCTACGACCCGTATTCGCACCGACAC	-4.65 ± 0.93	-5.91 ± 0.056
ACATTAGTCGATACAACCATAAAATGATAATTACACCCATAAATGGATAATTATCACACCCAATTTAACTATAACGCTCTGATCATAGTCAGACCAACATTGCTACGACCCGTATTCGCACCGACAC	-5.29 ± 1.4	-6.76 ± 0.26
ACATTAGTCGATACAACCATAAAATGATAATTACACCCATAAATGGATCATTATCACACCCAATTTAACTATAACGCTCTGATCATAGTCAGACCAACATTGCTACGACCCGTATTCGCACCGACAC	-5.41 ± 0.28	-8.21 ± 0.66
ACATTAGTCGATACAACCATAAAATGATAATTACACCCATAAATTCATCATTATCACACCCAATTTAACTATAACGCTCTGATCATAGTCAGACCAACATTGCTACGACCCGTATTCGCACCGACAC	-6.06 ± 1.4	-7.32 ± 0.43
ACATTAGTCGATACAACCATAAAATGATAATTACACCCATAAATTGATAATTATCACACCCAATTTAACTATAACGCTCTGATCATAGTCAGACCAACATTGCTACGACCCGTATTCGCACCGACAC	-5.9 ± 1.5	-7.53 ± 1.2
ACATTAGTCGATACAACCATAAAATGATAATTACACCCATAAATTGATCATTATCACACCCAATTTAACTATAACGCTCTGATCATAGTCAGACCAACATTGCTACGACCCGTATTCGCACCGACAC	-3.34 ± 1	-7.26 ± 0.69
ACATTAGTGGATACAACCATAAAATGATAATTACACCCATAAATGGATAATTATCACACCCAATTTAACTATAACGCTCTGATCATAGTCAGACCAACATTGCTACGACCCGTATTCGCACCGACAC	-5.46 ± 0.48	-7.08 ± 1.1
ACATTAGTGGATACAACCATAAAATGATAATTACACCCATAAATTCATAATTATCACACCCAATTTAACTATAACGCTCTGATCATAGTCAGACCAACATTGCTACGACCCGTATTCGCACCGACAC	-5.23 ± 1.8	-7.6 ± 0.5
ACATTAGTGGATACAACCATAAAATGATAATTACACCCATAAATTCATCATTATCACACCCAATTTAACTATAACGCTCTGATCATAGTCAGACCAACATTGCTACGACCCGTATTCGCACCGACAC	-4.73 ± 0.58	-7.21 ± 0.51
ACATTAGTGGATACAACCATAAAATGATAATTACACCCATAAATTGATAATTATCACACCCAATTTAACTATAACGCTCTGATCATAGTCAGACCAACATTGCTACGACCCGTATTCGCACCGACAC	-3.09 ± 0.75	-5.98 ± 0.27
ACATTAGTGGATACAACCATAAAATGATAATTACACCCATAAATTGATCATTATCACACCCAATTTAACTATAACGCTCTGATCATAGTCAGACCAACATTGCTACGACCCGTATTCGCACCGACAC	-5.22 ± 1.2	-7.5 ± 0.15
ACATTAGTTCATACAACCATAAAATGATAATTACACCCATAAATGGATAATTATCACACCCAATTTAACTATAACGCTCTGATCATAGTCAGACCAACATTGCTACGACCCGTATTCGCACCGACAC	-3.62 ± 0.12	-6.74 ± 0.15

Sequence	relative integration efficiency (log2) [1]	relative integration efficiency (log2) [2]
ACATTAGTTCATACAACCATAAAATGATAATTACACCCATAAATGGATCATTATCACACCCAATTTAACTATAACGCTCTGATCATAGTCAGACCAACATTGCTACGACCCGTATTCGCACCGACAC	-7.73 ± 1.7	-7.359 ± 0.025
ACATTAGTTCATACAACCATAAAATGATAATTACACCCATAAATTCATCATTATCACACCCAATTTAACTATAACGCTCTGATCATAGTCAGACCAACATTGCTACGACCCGTATTCGCACCGACAC	-5.32 ± 0.75	-7.69 ± 0.13
ACATTAGTTGATACAACCATAAAATGATAATTACACCCATAAATGGATAATTATCACACCCAATTTAACTATAACGCTCTGATCATAGTCAGACCAACATTGCTACGACCCGTATTCGCACCGACAC	-4.68 ± 1.3	-6.45 ± 0.32
ACATTAGTTGATACAACCATAAAATGATAATTACACCCATAAATGGATCATTATCACACCCAATTTAACTATAACGCTCTGATCATAGTCAGACCAACATTGCTACGACCCGTATTCGCACCGACAC	-4.72 ± 0.67	-6.02 ± 0.2
ACATTAGTTGATACAACCATAAAATGATAATTACACCCATAAATTCATAATTATCACACCCAATTTAACTATAACGCTCTGATCATAGTCAGACCAACATTGCTACGACCCGTATTCGCACCGACAC	-4.45 ± 0.066	-6.87 ± 0.4
ACATTAGTTGATACAACCATAAAATGATAATTACACCCATAAATTCATCATTATCACACCCAATTTAACTATAACGCTCTGATCATAGTCAGACCAACATTGCTACGACCCGTATTCGCACCGACAC	-4.99 ± 0.51	-7.83 ± 0.12
ACATTTGTTGATACCCAACGCCCCGTCGCCGGCACAAACGCCCGGTCGCCGGCGACACAAACGCCCGGTCGCGGTAAGAGGATCATAGTCAGACCAACATTGCTACGACCCGTATTCGCACCGACAC	–	-6.49 ± 0.44
ACATTTGTTGATAGTTGGTATTTTACTATTAATCACCCATAAATTGATAATTATCACACCCATAAATTGATATTGCCTCTGATCATAGTCAGACCAACATTGCTACGACCCGTATTCGCACCGACAC	–	-7.24 ± 1
ACATTTGTTGATATAATTATCATTTTATGGTTGCAACCATAAAATGATAATTATCATAATTATCATTTTATGGTTGCTCTGATCATAGTCAGACCAACATTGCTACGACCCGTATTCGCACCGACAC	–	-2.78 ± 0.3
ACATTTGTTGATATAATTATCATTTTATGGTTGTAATTATCATTTTATGGTTGTCACAACCATAAAATGATAATTACTCTGATCATAGTCAGACCAACATTGCTACGACCCGTATTCGCACCGACAC	–	-6.264 ± 0.019
ACATTTGTTGATATGTCAACCATAAAATGATAATTACACCCATAAATTGATAATTATCACACCCATAAATTGATATTGCCTCTGATCATAGTCAGACCAACATTGCTACGACCCGTATTCGCACCGA	–	-2.13 ± 0.23
ACATTTGTTGATATGTTGCAACCATAAAATGATAATTACACCCATAAATTGATAATTATCACACCCATAAATTGATATTGCCTCTGATCATAGTCAGACCAACATTGCTACGACCCGTATTCGCACC	–	-6.84 ± 0.38
ACATTTGTTGATGCAACCATAAAATGATAATTAATAATTATTTATAATCAGCAACTTAACCACAAAACACCCATAAATTGATAATTAACAAAACACCCATAAATTGATATTGCCTCTGATCATAGTC	–	-4.62 ± 0.92
ACATTTGTTGATGCAACCATAAAGTGATATTTAATAATTATTTATAATCAGCAACTTAACCACAAAACAACCATATATTGATATCTCACAAAACAACCATAAGTTGATATTTTCTCTGATCATAGTC	< -10	–
ACATTTGTTGCAACCATAAAATGATAATTACACCCATAAATTGATAATTATCACACCCATAAATTGATATTGCCTCTGATCATAGTCAGACCAACATTGCTACGACCCGTATTCGCACCGACACTGA	–	-7.1 ± 0.91
CAAAATGTAAAAAAAACCATACGTTGATTTTACGAAACCATACGCTGAAATAAAAACAACCATACCTTGAAATTGCTTATAAAGTGTACAACACTTGAGAAAGTTTACTACAGGTATGCACCGACAC	< -10	–
CAAAATGTTGATAAAACCATACGTTGATTTTACGAAACCATACGCTGAAATAAAAACAACCATACCTTGAAATTGCTTATAAAGTGTACAACACTTGAGAAAGTTTACTACAGGTATGCACCGACAC	–	-9.08 ± 1.1
